Results as given in US20180037910.

Columns and labels:
[1] = system: Il2rg ZFN-2 (synthetic construct); assay: cell_activity; conditions: ZFN-1+ZFN-2 pair with LTVEC versus LTVEC alone, fold increase in targeting efficiency; 6 bp spacer; mouse F1H4 ES cells
[2] = system: Il2rg ZFN-1 (synthetic construct); assay: cell_activity; conditions: ZFN-1+ZFN-2 pair with LTVEC versus LTVEC alone, fold increase in targeting efficiency; 6 bp spacer; mouse F1H4 ES cells

GTCTTCATTCGCACT (double strand) [Il2rg exon 1 ZFN-2 half-site (anti-sense strand)]
activity [1]: 4 fold

AGCTCCAAGGTCCTC (double strand) [Il2rg exon 1 ZFN-1 half-site (sense strand)]
activity [2]: 4 fold
